B1: CPEB3 Ribozyme (parent)
chain: UAACAGGGGGCCACAGCAGAAGCGUUCACGUCGCAGCCCCUGUCAGAUUCUGGUGAAUCUGCGAAUUCUGCUGUAUAUCUC

In the series the parent is B1. Briefly: self-cleavage, relative activity (ratio to wild type); higher = more cleavage; in vitro, sequencing. The gist of the method:
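CPEB3 self-cleaving ribozyme mutant libraries were made by rounds of error-prone PCR, barcoded, and transcribed in vitro with T7 RNA polymerase for 5 hours at 37°C. Cleavage occurred during transcription and a 15 min DNase I step before EDTA stop. RNAs were reverse transcribed with template switching and Illumina-sequenced, with DNA sequencing mapping barcodes to variants. Relative activity is the variant's cleaved/total read fraction divided by wild type's (minimum 5 reads), averaged across three batches.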
For the variant A35G C38U, the self-cleavage amounted to 1.23.

In the case of G7A C62U, the self-cleavage was 0.22.

Consider C23A U58C, for which the self-cleavage is 0.56.

Take A18U A64U: the self-cleavage turned out to be 0.28.

Take G22C U69C: the self-cleavage came to 0.15.

Take A18U U48A: the self-cleavage was 0.19.

With A18U U48C, the self-cleavage came to 0.28.

G24A U74G: the self-cleavage is 0.13.

With C68G A77G, the self-cleavage was determined as 0.61.

Take C39U U49C: the self-cleavage turned out to be 0.31.

C39U A64U: the self-cleavage was 0.36.

As to U66A, the self-cleavage was 0.51.

Consider G9A C34A, for which the self-cleavage worked out at 0.2.

With C29A U67A, the self-cleavage amounted to 0.46.

Regarding A21G C71A, the self-cleavage stood at 0.07.

As for G9C C44U, the self-cleavage worked out at 0.18.

For G7A U43G, the self-cleavage amounted to 0.15.

For the variant A18C U58A, the self-cleavage is 0.21.

In the case of C39U A77U, the self-cleavage came to 0.81.

Regarding U58G U66C, the self-cleavage was 0.27.

C27G U41C: the self-cleavage is 0.18.

As to C40A U60C, the self-cleavage was 0.2.

For the variant A13U G42U, the self-cleavage stood at 0.12.

Regarding G19U A77U, the self-cleavage amounted to 0.12.

Consider A5G U72G, for which the self-cleavage stood at 0.79.

Turning to A45G C59G, the self-cleavage turned out to be 0.2.

For U48C U49G, the self-cleavage amounted to 0.29.

Consider C14A A35U, for which the self-cleavage was found to be 0.4.

As to U49C U51A, the self-cleavage was 0.49.

In the case of U31A U60G, the self-cleavage is 0.2.

A5G G16U: the self-cleavage turned out to be 0.54.

In the case of U48G G53C, the self-cleavage came to 0.55.

Regarding C32U U41C, the self-cleavage is 0.26.

In the case of U58C U72C, the self-cleavage was 0.59.

On to C39G U41A, for which the self-cleavage amounted to 0.21.

For G8C U31G, the self-cleavage turned out to be 0.34.

U41G U58C: the self-cleavage amounted to 0.18.

As to A45U A47U, the self-cleavage turned out to be 0.24.

With C29U U41A, the self-cleavage was determined as 0.43.

For A2G A64G, the self-cleavage came to 0.55.

Turning to A3G A5C, the self-cleavage came out at 0.71.

As for C38U U43C, the self-cleavage is 0.28.

In the case of U1A U41C, the self-cleavage worked out at 0.89.

U31A U69A: the self-cleavage is 0.29.

Turning to U25G C71G, the self-cleavage came to 0.16.

As for C23G U74A, the self-cleavage was 0.28.

As to C50G U78C, the self-cleavage is 0.71.

Take C38A U49A: the self-cleavage is 0.27.

As for C37U U78C, the self-cleavage stood at 0.56.

For C44U U78C, the self-cleavage was 0.35.

In the case of A15G A18G, the self-cleavage was found to be 0.5.

For the variant A13G G33A, the self-cleavage was 0.21.

As for C38U A47G, the self-cleavage was determined as 0.66.

As to G9C A57U, the self-cleavage was determined as 0.24.

In the case of A3C A15U, the self-cleavage turned out to be 0.77.

With G6A C29A, the self-cleavage is 0.05.

As to C40U C79G, the self-cleavage was found to be 1.24.

As for A15G U31A, the self-cleavage was found to be 0.63.

G36A U51C: the self-cleavage is 0.2.

On to A65G U66A, for which the self-cleavage stood at 0.17.

Take G22U A64G: the self-cleavage was found to be 0.36.

For the variant A47C U51A, the self-cleavage worked out at 0.33.

As for A13C U72A, the self-cleavage came to 0.24.

As for C29U U78A, the self-cleavage was 0.36.

As for A21G C59U, the self-cleavage worked out at 0.38.

As for A2G G46A, the self-cleavage came out at 0.28.

On to G19A A77G, for which the self-cleavage came to 0.3.

On to C11A U58C, for which the self-cleavage came to 0.43.

For G53C U76A, the self-cleavage came out at 1.22.

Turning to G8U A28G, the self-cleavage came to 0.14.

For the variant A64G U74C, the self-cleavage was 1.15.

As for G6C U54C, the self-cleavage was determined as 0.52.

Regarding C37G A75U, the self-cleavage amounted to 1.13.

As to U51A U78A, the self-cleavage was 1.

Turning to A5U C59A, the self-cleavage was 0.43.

Consider U25C U31G, for which the self-cleavage is 0.23.

As for A13G C44U, the self-cleavage is 0.32.

Consider A13G U69A, for which the self-cleavage is 0.38.

Regarding G33A U48C, the self-cleavage was determined as 0.26.

On to A3U A18G, for which the self-cleavage was found to be 0.8.

As for U49A U72C, the self-cleavage was determined as 0.87.

Consider G9A A56G, for which the self-cleavage came out at 0.18.

With A18C C50A, the self-cleavage was determined as 0.12.

Take U26A C27A: the self-cleavage turned out to be 0.31.

Regarding A3G A13C, the self-cleavage stood at 1.02.

Regarding A18C C40A, the self-cleavage came out at 0.34.

As to C27U U80A, the self-cleavage was 0.29.

For the variant C38U U49G, the self-cleavage was 0.37.

On to C38U U49C, for which the self-cleavage came to 0.34.

On to G6A C12U, for which the self-cleavage is 0.59.

With A13G C17U, the self-cleavage was 0.51.

As for A3G A28G, the self-cleavage stood at 0.72.

In the case of A2G U78C, the self-cleavage turned out to be 0.58.

Take A5G G53C: the self-cleavage turned out to be 0.8.

In the case of U31C A57C, the self-cleavage was 0.49.

Turning to C39A, the self-cleavage stood at 0.31.

On to C11A A21G, for which the self-cleavage turned out to be 0.24.

G53A U78C: the self-cleavage was found to be 1.06.

Take A13C: the self-cleavage was determined as 0.96.

With G63C U72C, the self-cleavage worked out at 1.14.

In the case of U74C U76A, the self-cleavage came out at 1.3.

For the variant C32A U51A, the self-cleavage was found to be 0.24.

With A28G A35G, the self-cleavage came to 1.18.

U31G A64G: the self-cleavage was found to be 0.46.

Regarding A20G C50G, the self-cleavage was found to be 0.57.

In the case of U1C A2G, the self-cleavage amounted to 0.8.

Consider A13C U51A, for which the self-cleavage amounted to 1.01.

For G19A C40G, the self-cleavage is 0.1.

On to A18U A21U, for which the self-cleavage is 0.28.

As for A3U U25C, the self-cleavage came out at 0.34.

For G6A A75U, the self-cleavage came to 0.51.

With A13G A35C, the self-cleavage is 0.56.

With C27U U66C, the self-cleavage amounted to 0.15.

For A18G U31C, the self-cleavage is 0.3.

With A18U A45U, the self-cleavage is 0.25.

As for G36U A45U, the self-cleavage was found to be 0.19.

Take U49A A75G: the self-cleavage was 0.39.

U67A C68U: the self-cleavage was determined as 0.33.

As to C38A U41C, the self-cleavage turned out to be 0.43.

Regarding C40A A56G, the self-cleavage came out at 0.23.

For U25G A45G, the self-cleavage was determined as 0.29.

On to A3G G19U, for which the self-cleavage is 0.41.

For the variant A18G A64G, the self-cleavage amounted to 0.43.

Take G7A U67C: the self-cleavage came out at 0.25.

Consider A5G G63A, for which the self-cleavage turned out to be 0.61.

Turning to C37U C79A, the self-cleavage was determined as 1.11.

Turning to G7A G55U, the self-cleavage was 0.2.

With U51G A64G, the self-cleavage is 0.85.

For A18G G63U, the self-cleavage turned out to be 1.02.

As for A28U C40U, the self-cleavage is 0.59.

As for U66A U80A, the self-cleavage amounted to 0.49.

As to G36A U60A, the self-cleavage was found to be 0.18.

Turning to A28G C40U, the self-cleavage came out at 0.48.

Take U49A U60A: the self-cleavage amounted to 0.21.

A13U U80C: the self-cleavage turned out to be 1.18.

Regarding A21G A35G, the self-cleavage was determined as 1.16.

For the variant G9U U49A, the self-cleavage came to 0.41.

Take A13U C14U: the self-cleavage amounted to 1.26.

In the case of U51A C81A, the self-cleavage is 1.1.

As for A20G U67C, the self-cleavage came out at 1.01.

As for A5C U54G, the self-cleavage amounted to 0.81.

On to A57G U69A, for which the self-cleavage worked out at 0.54.

Take C39A C71U: the self-cleavage is 0.11.

Consider C27U U76A, for which the self-cleavage came out at 0.28.

Regarding U1A A2G, the self-cleavage is 0.87.

As for G52U U78C, the self-cleavage came out at 1.08.

For G24U A35U, the self-cleavage came out at 0.19.

On to A18G U41G, for which the self-cleavage worked out at 0.42.

Turning to A5U U72C, the self-cleavage is 1.14.

With G52U A65G, the self-cleavage was 0.51.

For C59U C62U, the self-cleavage was 0.16.

Take C11U G53U: the self-cleavage was 0.43.

Take G8A G30A: the self-cleavage came out at 0.4.

Consider C27U U41G, for which the self-cleavage worked out at 0.11.

As for G8U A64C, the self-cleavage turned out to be 0.12.

Regarding A35G G55A, the self-cleavage is 1.23.

Turning to G10C G24U, the self-cleavage is 0.15.

With G46U U58C, the self-cleavage turned out to be 0.17.

With C23A A35G, the self-cleavage was determined as 0.27.

Turning to U25C C29U, the self-cleavage was 0.47.

As for U25G A75G, the self-cleavage was 0.29.

As for G36C A64G, the self-cleavage was determined as 0.16.

Turning to G24A U67A, the self-cleavage worked out at 0.18.

As for A3U C68G, the self-cleavage was found to be 0.44.

As to A18G G73A, the self-cleavage came out at 1.24.

In the case of G55A, the self-cleavage came out at 0.84.

As for G61A U80C, the self-cleavage worked out at 0.9.
